Laboratory results taken from paper PMC9482650, “Quantitative fragmentomics allow affinity mapping of interactomes” (Nature Communications, 2022).

T1: MPDZ_10, O75970
T1 sequence (O75970 1624-1722, limits assumed, looked up): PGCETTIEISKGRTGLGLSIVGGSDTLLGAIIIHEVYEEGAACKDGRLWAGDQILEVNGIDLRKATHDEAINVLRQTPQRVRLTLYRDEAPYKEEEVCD

T2: APBA2_2, Q99767
T2 sequence (Q99767 654-744, limits assumed, looked up): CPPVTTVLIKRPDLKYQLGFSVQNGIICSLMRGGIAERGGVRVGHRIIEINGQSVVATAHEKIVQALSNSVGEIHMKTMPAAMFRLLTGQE

T3: TX1BP3, O14907
T3 sequence (O14907 10-122, limits assumed, looked up): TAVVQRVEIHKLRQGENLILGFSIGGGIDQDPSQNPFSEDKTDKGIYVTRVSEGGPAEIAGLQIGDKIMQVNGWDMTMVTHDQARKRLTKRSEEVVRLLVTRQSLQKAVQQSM

T4: LNX2_2, Q8N448
T4 sequence (Q8N448 334-432, limits assumed, looked up): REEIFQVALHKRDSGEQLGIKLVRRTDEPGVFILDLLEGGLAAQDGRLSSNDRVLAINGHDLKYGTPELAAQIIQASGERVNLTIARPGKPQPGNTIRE

T5: PCLO, Q9Y6V0
T5 sequence (Q9Y6V0 4491-4600, limits assumed, looked up): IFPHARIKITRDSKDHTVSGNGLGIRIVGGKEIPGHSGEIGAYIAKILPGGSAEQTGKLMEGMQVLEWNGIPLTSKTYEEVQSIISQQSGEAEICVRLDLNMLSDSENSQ

T6: GRIP1_7, Q9Y3R0
T6 sequence (Q9Y3R0 999-1096, limits assumed, looked up): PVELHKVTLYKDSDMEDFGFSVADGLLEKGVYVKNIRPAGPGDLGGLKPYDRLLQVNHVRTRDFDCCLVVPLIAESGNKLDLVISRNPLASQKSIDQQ

T7: RADIL, Q96JH8
T7 sequence (Q96JH8 971-1071, limits assumed, looked up): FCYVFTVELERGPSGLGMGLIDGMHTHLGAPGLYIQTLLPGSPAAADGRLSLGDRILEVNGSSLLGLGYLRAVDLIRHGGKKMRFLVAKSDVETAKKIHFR

T8: LIN7A, O14910
T8 sequence (O14910 103-200, limits assumed, looked up): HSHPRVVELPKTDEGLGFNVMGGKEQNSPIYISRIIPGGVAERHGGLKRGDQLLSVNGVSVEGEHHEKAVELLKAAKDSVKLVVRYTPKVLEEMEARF

T9: NHERF3_4, Q5T2W1
T9 sequence (Q5T2W1 373-468, limits assumed, looked up): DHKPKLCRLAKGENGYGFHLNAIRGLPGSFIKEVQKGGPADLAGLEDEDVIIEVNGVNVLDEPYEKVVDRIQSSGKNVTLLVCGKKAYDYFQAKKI

T10: MPP2, Q14168
T10 sequence (Q14168 180-250, limits assumed, looked up): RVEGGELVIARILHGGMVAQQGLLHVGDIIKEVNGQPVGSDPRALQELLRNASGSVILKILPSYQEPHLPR

T11: DFNB31_2, Q9P202
T11 sequence (Q9P202 274-371, limits assumed, looked up): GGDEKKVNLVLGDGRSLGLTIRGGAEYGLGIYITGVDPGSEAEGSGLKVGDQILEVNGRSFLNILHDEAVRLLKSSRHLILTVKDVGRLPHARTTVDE

T12: HTRA4, P83105
T12 sequence (P83105 378-476, limits assumed, looked up): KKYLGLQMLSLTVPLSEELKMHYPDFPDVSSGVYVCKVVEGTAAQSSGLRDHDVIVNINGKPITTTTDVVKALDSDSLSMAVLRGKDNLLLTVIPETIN


Each binder was assayed against T1, MPDZ_10, O75970 (assay: holdup assay). Conditions: plain residues with an end cap or a label only (N-terminal biotin on a linker: ado-ado).
Parameters: key: below the threshold = too weak to quantify, mostly under pKd 3.1 to 4

Row | pKd | Binder
1 | below the threshold | PAALPESTHM [SLC9A3, P48764]
2 | below the threshold | THREVKFTSL [CD46, P15529]

These binders were tested against MAGI1_1, Q96QZ7 (assay: holdup assay). Conditions: plain residues with an end cap or a label only (N-terminal biotin on a linker: ado-ado).
MAGI1_1, Q96QZ7, sequence (Q96QZ7 1-106): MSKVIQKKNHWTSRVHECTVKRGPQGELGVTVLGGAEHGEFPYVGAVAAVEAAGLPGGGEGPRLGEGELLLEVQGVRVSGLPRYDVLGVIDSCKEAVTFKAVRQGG
Parameters: key: below the threshold = too weak to quantify, mostly under pKd 3.1 to 4

Row | pKd | Binder
3 | below the threshold | PAALPESTHM [SLC9A3, P48764]
4 | below the threshold | THREVKFTSL [CD46, P15529]

Each binder was assayed against FRMPD2_2, Q68DX3 (assay: holdup assay). Conditions: plain residues with an end cap or a label only (N-terminal biotin on a linker: ado-ado).
FRMPD2_2, Q68DX3, sequence (Q68DX3 944-1038): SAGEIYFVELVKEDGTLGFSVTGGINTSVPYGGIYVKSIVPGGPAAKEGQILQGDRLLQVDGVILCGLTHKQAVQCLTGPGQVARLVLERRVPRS
Parameters: key: below the threshold = too weak to quantify, mostly under pKd 3.1 to 4

Row | pKd | Binder
5 | below the threshold | PAALPESTHM [SLC9A3, P48764]
6 | below the threshold | THREVKFTSL [CD46, P15529]

Each binder was assayed against T2, APBA2_2, Q99767 (assay: holdup assay). Conditions: plain residues with an end cap or a label only (N-terminal biotin on a linker: ado-ado).
Parameters: key: below the threshold = too weak to quantify, mostly under pKd 3.1 to 4

Row | pKd | Binder
7 | below the threshold | PAALPESTHM [SLC9A3, P48764]
8 | below the threshold | THREVKFTSL [CD46, P15529]

These binders were tested against T3, TX1BP3, O14907 (assay: holdup assay). Conditions: plain residues with an end cap or a label only (N-terminal biotin on a linker: ado-ado).
Parameters: key: below the threshold = too weak to quantify, mostly under pKd 3.1 to 4

Row | pKd | Binder
9 | below the threshold | PAALPESTHM [SLC9A3, P48764]
10 | 4.37 | THREVKFTSL [CD46, P15529]

What follows are binders tested against Inadl_9, Q8NI35 (assay: holdup assay). Conditions: plain residues with an end cap or a label only (N-terminal biotin on a linker: ado-ado).
Inadl_9, Q8NI35, sequence (Q8NI35 1530-1615): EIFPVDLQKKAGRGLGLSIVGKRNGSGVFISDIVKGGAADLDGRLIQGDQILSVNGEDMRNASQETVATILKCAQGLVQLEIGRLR
Parameters: key: below the threshold = too weak to quantify, mostly under pKd 3.1 to 4

Row | pKd | Binder
11 | below the threshold | PAALPESTHM [SLC9A3, P48764]
12 | below the threshold | THREVKFTSL [CD46, P15529]

What follows are binders tested against T4, LNX2_2, Q8N448 (assay: holdup assay). Conditions: plain residues with an end cap or a label only (N-terminal biotin on a linker: ado-ado).
Parameters: key: below the threshold = too weak to quantify, mostly under pKd 3.1 to 4

Row | pKd | Binder
13 | below the threshold | PAALPESTHM [SLC9A3, P48764]
14 | below the threshold | THREVKFTSL [CD46, P15529]

Each binder was assayed against T5, PCLO, Q9Y6V0 (assay: holdup assay). Conditions: plain residues with an end cap or a label only (N-terminal biotin on a linker: ado-ado).
Parameters: key: below the threshold = too weak to quantify, mostly under pKd 3.1 to 4

Row | pKd | Binder
15 | below the threshold | PAALPESTHM [SLC9A3, P48764]
16 | below the threshold | THREVKFTSL [CD46, P15529]

The binders below were run against T6, GRIP1_7, Q9Y3R0 (assay: holdup assay). Conditions: plain residues with an end cap or a label only (N-terminal biotin on a linker: ado-ado).
Parameters: key: below the threshold = too weak to quantify, mostly under pKd 3.1 to 4

Row | pKd | Binder
17 | below the threshold | PAALPESTHM [SLC9A3, P48764]
18 | below the threshold | THREVKFTSL [CD46, P15529]

Each binder was assayed against T7, RADIL, Q96JH8 (assay: holdup assay). Conditions: plain residues with an end cap or a label only (N-terminal biotin on a linker: ado-ado).
Parameters: key: below the threshold = too weak to quantify, mostly under pKd 3.1 to 4

Row | pKd | Binder
19 | below the threshold | PAALPESTHM [SLC9A3, P48764]
20 | 3.49 | THREVKFTSL [CD46, P15529]

Each binder was assayed against Inadl_5, Q8NI35 (assay: holdup assay). Conditions: plain residues with an end cap or a label only (N-terminal biotin on a linker: ado-ado).
Inadl_5, Q8NI35, sequence (Q8NI35 673-780): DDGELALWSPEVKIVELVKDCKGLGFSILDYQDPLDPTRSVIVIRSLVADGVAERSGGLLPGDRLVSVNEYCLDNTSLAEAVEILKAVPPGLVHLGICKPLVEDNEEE
Parameters: key: below the threshold = too weak to quantify, mostly under pKd 3.1 to 4

Row | pKd | Binder
21 | below the threshold | PAALPESTHM [SLC9A3, P48764]
22 | below the threshold | THREVKFTSL [CD46, P15529]

What follows are binders tested against T8, LIN7A, O14910 (assay: holdup assay). Conditions: plain residues with an end cap or a label only (N-terminal biotin on a linker: ado-ado).
Parameters: key: below the threshold = too weak to quantify, mostly under pKd 3.1 to 4

Row | pKd | Binder
23 | below the threshold | PAALPESTHM [SLC9A3, P48764]
24 | below the threshold | THREVKFTSL [CD46, P15529]

These binders were tested against FRMPD2_3, Q68DX3 (assay: holdup assay). Conditions: plain residues with an end cap or a label only (N-terminal biotin on a linker: ado-ado).
FRMPD2_3, Q68DX3, sequence (Q68DX3 1073-1166): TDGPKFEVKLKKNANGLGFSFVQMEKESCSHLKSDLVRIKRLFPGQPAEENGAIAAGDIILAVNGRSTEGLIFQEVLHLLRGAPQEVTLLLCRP
Parameters: key: below the threshold = too weak to quantify, mostly under pKd 3.1 to 4

Row | pKd | Binder
25 | below the threshold | PAALPESTHM [SLC9A3, P48764]
26 | below the threshold | THREVKFTSL [CD46, P15529]

Each binder was assayed against T9, NHERF3_4, Q5T2W1 (assay: holdup assay). Conditions: plain residues with an end cap or a label only (N-terminal biotin on a linker: ado-ado).
Parameters: key: below the threshold = too weak to quantify, mostly under pKd 3.1 to 4

Row | pKd | Binder
27 | 3.52 | PAALPESTHM [SLC9A3, P48764]
28 | 4.6 | THREVKFTSL [CD46, P15529]

What follows are binders tested against IL16_3, Q14005 (assay: holdup assay). Conditions: plain residues with an end cap or a label only (N-terminal biotin on a linker: ado-ado).
IL16_3, Q14005, sequence (Q14005 1107-1207): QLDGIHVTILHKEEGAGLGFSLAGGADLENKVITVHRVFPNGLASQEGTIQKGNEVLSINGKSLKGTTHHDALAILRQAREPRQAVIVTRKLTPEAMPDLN
Parameters: key: below the threshold = too weak to quantify, mostly under pKd 3.1 to 4

Row | pKd | Binder
29 | below the threshold | PAALPESTHM [SLC9A3, P48764]
30 | below the threshold | THREVKFTSL [CD46, P15529]

What follows are binders tested against T10, MPP2, Q14168 (assay: holdup assay). Conditions: plain residues with an end cap or a label only (N-terminal biotin on a linker: ado-ado).
Parameters: key: below the threshold = too weak to quantify, mostly under pKd 3.1 to 4

Row | pKd | Binder
31 | below the threshold | PAALPESTHM [SLC9A3, P48764]
32 | below the threshold | THREVKFTSL [CD46, P15529]

These binders were tested against TJP2_1, Q9UDY2 (assay: holdup assay). Conditions: plain residues with an end cap or a label only (N-terminal biotin on a linker: ado-ado).
TJP2_1, Q9UDY2, sequence (Q9UDY2 24-128): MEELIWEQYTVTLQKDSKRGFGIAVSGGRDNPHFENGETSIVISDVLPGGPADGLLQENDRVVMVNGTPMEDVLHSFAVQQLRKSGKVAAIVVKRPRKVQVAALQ
Parameters: key: below the threshold = too weak to quantify, mostly under pKd 3.1 to 4

Row | pKd | Binder
33 | below the threshold | PAALPESTHM [SLC9A3, P48764]
34 | 3.73 | THREVKFTSL [CD46, P15529]

What follows are binders tested against T11, DFNB31_2, Q9P202 (assay: holdup assay). Conditions: plain residues with an end cap or a label only (N-terminal biotin on a linker: ado-ado).
Parameters: key: below the threshold = too weak to quantify, mostly under pKd 3.1 to 4

Row | pKd | Binder
35 | below the threshold | PAALPESTHM [SLC9A3, P48764]
36 | 4.28 | THREVKFTSL [CD46, P15529]

These binders were tested against T12, HTRA4, P83105 (assay: holdup assay). Conditions: plain residues with an end cap or a label only (N-terminal biotin on a linker: ado-ado).
Parameters: key: below the threshold = too weak to quantify, mostly under pKd 3.1 to 4

Row | pKd | Binder
37 | 3.9 | PAALPESTHM [SLC9A3, P48764]
38 | below the threshold | THREVKFTSL [CD46, P15529]

These binders were tested against Inadl_8, Q8NI35 (assay: holdup assay). Conditions: plain residues with an end cap or a label only (N-terminal biotin on a linker: ado-ado).
Inadl_8, Q8NI35, sequence (Q8NI35 1425-1530): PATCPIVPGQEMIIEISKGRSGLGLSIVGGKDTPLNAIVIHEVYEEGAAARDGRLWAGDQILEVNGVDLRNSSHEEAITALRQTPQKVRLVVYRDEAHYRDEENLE
Parameters: key: below the threshold = too weak to quantify, mostly under pKd 3.1 to 4

Row | pKd | Binder
39 | below the threshold | PAALPESTHM [SLC9A3, P48764]
40 | 3.53 | THREVKFTSL [CD46, P15529]

Each binder was assayed against TJP1_2, Q07157 (assay: holdup assay). Conditions: plain residues with an end cap or a label only (N-terminal biotin on a linker: ado-ado).
TJP1_2, Q07157, sequence (Q07157 181-274): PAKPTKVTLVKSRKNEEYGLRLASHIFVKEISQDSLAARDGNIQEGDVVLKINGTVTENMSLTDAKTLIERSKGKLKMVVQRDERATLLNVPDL
Parameters: key: below the threshold = too weak to quantify, mostly under pKd 3.1 to 4

Row | pKd | Binder
41 | below the threshold | PAALPESTHM [SLC9A3, P48764]
42 | below the threshold | THREVKFTSL [CD46, P15529]

Each binder was assayed against Inadl_10, Q8NI35 (assay: holdup assay). Conditions: plain residues with an end cap or a label only (N-terminal biotin on a linker: ado-ado).
Inadl_10, Q8NI35, sequence (Q8NI35 1673-1763): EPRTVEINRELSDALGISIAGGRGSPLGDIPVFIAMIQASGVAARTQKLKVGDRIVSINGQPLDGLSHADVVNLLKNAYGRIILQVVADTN
Parameters: key: below the threshold = too weak to quantify, mostly under pKd 3.1 to 4

Row | pKd | Binder
43 | below the threshold | PAALPESTHM [SLC9A3, P48764]
44 | 3.49 | THREVKFTSL [CD46, P15529]

The binders below were run against MAGI3_2, Q5TCQ9 (assay: holdup assay). Conditions: plain residues with an end cap or a label only (N-terminal biotin on a linker: ado-ado).
MAGI3_2, Q5TCQ9, sequence (Q5TCQ9 398-503): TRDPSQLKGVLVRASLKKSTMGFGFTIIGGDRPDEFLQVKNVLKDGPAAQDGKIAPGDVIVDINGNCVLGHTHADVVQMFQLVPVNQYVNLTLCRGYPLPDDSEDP
Parameters: key: below the threshold = too weak to quantify, mostly under pKd 3.1 to 4

Row | pKd | Binder
45 | below the threshold | PAALPESTHM [SLC9A3, P48764]
46 | below the threshold | THREVKFTSL [CD46, P15529]

What follows are binders tested against ARHGEF12, Q9NZN5-2 (assay: holdup assay). Conditions: plain residues with an end cap or a label only (N-terminal biotin on a linker: ado-ado).
ARHGEF12, Q9NZN5-2, sequence (Q9NZN5 other isoform, or with tags, fused parts or gaps): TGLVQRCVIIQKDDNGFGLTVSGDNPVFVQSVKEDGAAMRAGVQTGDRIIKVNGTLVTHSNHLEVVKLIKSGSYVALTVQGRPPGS
Parameters: key: below the threshold = too weak to quantify, mostly under pKd 3.1 to 4

Row | pKd | Binder
47 | below the threshold | PAALPESTHM [SLC9A3, P48764]
48 | 5.37 | THREVKFTSL [CD46, P15529]

Each binder was assayed against MAGI1_2, Q96QZ7 (assay: holdup assay). Conditions: plain residues with an end cap or a label only (N-terminal biotin on a linker: ado-ado).
MAGI1_2, Q96QZ7, sequence (Q96QZ7 456-580): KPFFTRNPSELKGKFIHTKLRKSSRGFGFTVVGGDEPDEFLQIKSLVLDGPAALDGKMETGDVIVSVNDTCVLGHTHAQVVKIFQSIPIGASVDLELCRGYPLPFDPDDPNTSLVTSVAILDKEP
Parameters: key: below the threshold = too weak to quantify, mostly under pKd 3.1 to 4

Row | pKd | Binder
49 | below the threshold | PAALPESTHM [SLC9A3, P48764]
50 | 3.81 | THREVKFTSL [CD46, P15529]

These binders were tested against LNX1_3, Q8TBB1 (assay: holdup assay). Conditions: plain residues with an end cap or a label only (N-terminal biotin on a linker: ado-ado).
LNX1_3, Q8TBB1, sequence (Q8TBB1 500-596): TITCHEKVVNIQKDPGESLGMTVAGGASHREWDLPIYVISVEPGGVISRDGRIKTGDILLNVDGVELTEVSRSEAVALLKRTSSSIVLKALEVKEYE
Parameters: key: below the threshold = too weak to quantify, mostly under pKd 3.1 to 4

Row | pKd | Binder
51 | below the threshold | PAALPESTHM [SLC9A3, P48764]
52 | below the threshold | THREVKFTSL [CD46, P15529]
